Measurements: patent publication US11015206B2, “Compositions and methods comprising sequences having hydroxyphenylpyruvate dioxygenase (HPPD) activity” (PIONEER HI-BRED INTERNATIONAL, INC., priority 2014, dated 2021)
Substitutions are numbered along the chain they refer to.

B1: P056028-B-02 (protein)
chain: MGPTPTATAAGAAVAAASAAEQAAFRLVGHRNFVRFNPRSDRFQTLAFHHVELWCADAASAAGRFSFALGVPLAARSDLSTGNSAHASLLLRSGSLSLLFTAPYAHGADAATAALPSFSAAAARRFAADHGLAVRAVALRVADAEDAFRASVAAGARPAFGPVDLGRGFRLAEVELYGDVVLRYVSYPDGAAGEPFLPGFEGVASSGAADYGLSRFDHIVGNVPELAPAAAYMAGFTGFHEFAEFTTEDVGTTESGLNSMALANNSENVLLPLNEPVHGTKRRSQIQTFLDHHGGPGVQHIALASDDVLRTLREMRARSAMGGFEFLPPPLSDYYDGVRRCAGDVLTEAQINECQKLGVMVDRDDEGVLLQIFTKPVGDRPTFFLEIIQRIGCMEKDEKGQEYQKGGCGGFGKGNFGQLFKSIEDYERSLEAKQAAAVATAQGS
modifications: Zea mays variant form created by artificial means.
B2: 9070Q366E (protein)
chain: B1 chain with S206P, K356E, R428K, V438A
modifications: Zea mays variant form created by artificial means.
B3: P056028-A-01 (protein)
chain: B1 chain with S206P, K356E, R428K, Q434R, V438A
modifications: Zea mays variant form created by artificial means.

test system: 4-hydroxyphenylpyruvate dioxygenase (HPPD); experiment: Estimate of kcat from initial rate at saturating hydroxyphenylpyruvate without inhibitor (ON rate ratio assay); format: biochemical, Z. mays; conditions: Megatable 3; shuffled variants
How it was run: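 Reactions used 60 or 120 nM HPPD and saturating 100 μM hydroxyphenylpyruvate without inhibitor. kcat was estimated from the initial rate at the known enzyme concentration.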

B1 and B2 are within 1.5-fold of each other in kcat: 0.47 s⁻¹ for the first, 0.335 s⁻¹ for the second.

With B3 the kcat was 0.652 s⁻¹.

same assay, conditions: Table 7; combinatorial variants

B1 and B2 are within 1.5-fold of each other in kcat: 0.47 s⁻¹ for the first, 0.335 s⁻¹ for the second.

B3 was tested, and the kcat was 0.652 s⁻¹.

test system: 4-hydroxyphenylpyruvate dioxygenase (HPPD); experiment: ON rate ratio: HPPD reaction rate with vs without inhibitor in the 70 to 90 second interval; format: biochemical, Z. mays; conditions: Table 7; tembotrione; combinatorial variants
How it was run: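 Time courses of HPPD reactions, 60 or 120 nM enzyme with 100 μM HPP substrate, run with and without 4 μM inhibitor (e.g. mesotrione, tembotrione). Value is the rate with inhibitor over rate without, taken over 70–90 s; higher ratio reflects slower kON.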

First: B1
Second: B2
The ON rate ratio of the first is higher: 0.800 for the first, 0.760 for the second.

With B3 the ON rate ratio was 0.697.

same assay, conditions: inhibitor diketonitrile form of isoxaflutole (DKN)

Going from B1 to B2, the “Insensitivity, isoxaflutole (DKN), Rate ratio ON” value rises from 0.80 to 0.83.

For B3, the “Insensitivity, isoxaflutole (DKN), Rate ratio ON” value was 0.82.

same assay, conditions: inhibitor mesotrione

First: B1
Second: B2
The “Insensitivity, mesotrione, Rate ratio ON” value of the first is lower: 0.63 for the first, 0.72 for the second.

For B3, the “Insensitivity, mesotrione, Rate ratio ON” value was 0.67.

same assay, conditions: inhibitor sulcotrione

Going from B1 to B2, the “Insensitivity, sulcotrione, Rate ratio ON” value falls from 0.81 to 0.80.

In the case of B3, the “Insensitivity, sulcotrione, Rate ratio ON” value is reported as 0.80.

same assay, conditions: inhibitor tembotrione

Going from B1 to B2, the “Insensitivity, tembotrione, Rate ratio ON” value rises from 0.80 to 0.82.

In the case of B3, the “Insensitivity, tembotrione, Rate ratio ON” value is reported as 0.84.

same assay, conditions: inhibitor topramezone

First: B1
Second: B2
The “Insensitivity, topramezone, Rate ratio ON” value of the first is lower: 0.79 for the first, 0.81 for the second.

For B3, the “Insensitivity, topramezone, Rate ratio ON” value was 0.85.

test system: 4-hydroxyphenylpyruvate dioxygenase (HPPD); experiment: Insensitivity parameter (ON × OFF) and trait fitness (ON × OFF × kcat/KM or × kcat); format: biochemical, Z. mays; parameters: key to ON × OFF / Insensitivity, mesotrione, ON × OFF / Insensitivity, tembotrione, ON × OFF / Insensitivity, topramezone, ON × OFF / Insensitivity, sulcotrione, ON × OFF / Insensitivity, isoxaflutole (DKN), ON × OFF: insensitivity = ON rate ratio × OFF rate ratio (surrogate for KD); conditions: Megatable 3; shuffled variants
How it was run: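 Calculated, not measured directly: ON rate ratio × OFF rate ratio gives an insensitivity parameter serving as a KD surrogate.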

Going from B1 to B2, the “ON × OFF” value falls from 0.375 to 0.208.

B3 was tested, and the “ON × OFF” value was 0.173.

First: B1
Second: B2
The “ON × OFF × kcat” value of the first is higher: 10.58 for the first, 4.18 for the second.

B3 was tested, and the “ON × OFF × kcat” value was 6.78.

same assay, conditions: Table 7; tembotrione; combinatorial variants

First: B1
Second: B2
The “ON × OFF” value of the first is higher: 0.375 for the first, 0.208 for the second.

With B3 the “ON × OFF” value was 0.173.

First: B1
Second: B2
The “ON × OFF × kcat” value of the first is higher: 10.58 for the first, 4.18 for the second.

In the case of B3, the “ON × OFF × kcat” value is reported as 6.78.

same assay, conditions: inhibitor diketonitrile form of isoxaflutole (DKN)

First: B1
Second: B2
The “Insensitivity, isoxaflutole (DKN), ON × OFF” value of the first is higher: 0.35 for the first, 0.17 for the second.

For B3, the “Insensitivity, isoxaflutole (DKN), ON × OFF” value was 0.36.

First: B1
Second: B2
The “Insensitivity, isoxaflutole (DKN), Trait fitness” value of the first is higher: 6.78 for the first, 3.40 for the second.

For B3, the “Insensitivity, isoxaflutole (DKN), Trait fitness” value was 10.45.

same assay, conditions: inhibitor mesotrione

Compared with B1, B2 is higher in “Insensitivity, mesotrione, ON × OFF” value: 0.63 for the first, 0.72 for the second.

In the case of B3, the “Insensitivity, mesotrione, ON × OFF” value is reported as 0.67.

First: B1
Second: B2
The “Insensitivity, mesotrione, Trait Fitness” value of the first is lower: 12.3 for the first, 14.0 for the second.

B3 was tested, and the “Insensitivity, mesotrione, Trait Fitness” value was 19.6.

same assay, conditions: inhibitor sulcotrione

Compared with B1, B2 is lower in “Insensitivity, sulcotrione, ON × OFF” value: 0.81 for the first, 0.50 for the second.

B3 was tested, and the “Insensitivity, sulcotrione, ON × OFF” value was 0.97.

Compared with B1, B2 is lower in “Insensitivity, sulcotrione, Trait fitness” value: 15.8 for the first, 9.69 for the second.

With B3 the “Insensitivity, sulcotrione, Trait fitness” value was 28.4.

same assay, conditions: inhibitor tembotrione

Going from B1 to B2, the “Insensitivity, tembotrione, ON × OFF” value falls from 0.37 to 0.27.

With B3 the “Insensitivity, tembotrione, ON × OFF” value was 0.36.

First: B1
Second: B2
The “Insensitivity, tembotrione, Trait fitness” value of the first is higher: 7.35 for the first, 5.25 for the second.

B3 was tested, and the “Insensitivity, tembotrione, Trait fitness” value was 10.43.

same assay, conditions: inhibitor topramezone

Going from B1 to B2, the “Insensitivity, topramezone, ON × OFF” value falls from 0.42 to 0.26.

For B3, the “Insensitivity, topramezone, ON × OFF” value was 0.51.

Going from B1 to B2, the “Insensitivity, topramezone, Trait Fitness” value falls from 8.17 to 5.04.

With B3 the “Insensitivity, topramezone, Trait Fitness” value was 14.86.

test system: 4-hydroxyphenylpyruvate dioxygenase (HPPD); experiment: OFF rate ratio: release of inhibitor from pre-formed enzyme-inhibitor complex; format: biochemical, Z. mays; conditions: Table 7; tembotrione; combinatorial variants
How it was run: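 HPPD (7.2 μM) pre-incubated 1 h at RT with inhibitor (8 μM), then diluted into 25 mM Hepes pH 7, 2 mM ascorbate, 10 μM FeSO4, 100 μM HPP, 50 nM HGD; A320 followed 12 min. Ratio = steady-state rate with inhibitor over initial rate of inhibitor-free enzyme.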

Compared with B1, B2 is lower in OFF rate ratio: 0.469 for the first, 0.273 for the second.

B3 showed an OFF rate ratio of 0.249.

same assay, conditions: inhibitor diketonitrile form of isoxaflutole (DKN)

Compared with B1, B2 is lower in “Insensitivity, isoxaflutole (DKN), Rate ratio OFF” value: 0.43 for the first, 0.39 for the second.

For B3, the “Insensitivity, isoxaflutole (DKN), Rate ratio OFF” value was 0.44.

same assay, conditions: inhibitor mesotrione

B1 and B2 are the same in “Insensitivity, mesotrione, Rate ratio OFF” value: 1.00 for the first, 1.00 for the second.

For B3, the “Insensitivity, mesotrione, Rate ratio OFF” value was 1.00.

same assay, conditions: inhibitor sulcotrione

Compared with B1, B2 is higher in “Insensitivity, sulcotrione, Rate ratio OFF” value: 1.00 for the first, 1.13 for the second.

For B3, the “Insensitivity, sulcotrione, Rate ratio OFF” value was 1.22.

same assay, conditions: inhibitor tembotrione

Compared with B1, B2 is lower in “Insensitivity, tembotrione, Rate ratio OFF” value: 0.47 for the first, 0.33 for the second.

In the case of B3, the “Insensitivity, tembotrione, Rate ratio OFF” value is reported as 0.43.

same assay, conditions: inhibitor topramezone

Going from B1 to B2, the “Insensitivity, topramezone, Rate ratio OFF” value rises from 0.53 to 0.57.

B3 was tested, and the “Insensitivity, topramezone, Rate ratio OFF” value was 0.60.
